Biological target: 161P2F10b (UniProt O14638)
Assay: saturation binding ELISA; relative affinity

97A6(CD203c)
Kd: 0.28 nM
